In the supplement of paper PMC11316812:
± gives the standard deviation of the averaged measurements.

Key:
[1] = system: MCF7; experiment: percentage of EdU-negative (G0-arrested) nuclei per well, 72 h; higher = more G0 arrest; settings: reference: sequence is the full UniProt precursor, the tested protein was the secreted form or ectodomain
[2] = system: hTERT-HMEC; experiment: as above; settings: reference: sequence is the full UniProt precursor, the tested protein was the secreted form or ectodomain
[3] = protein concentration 0.0225 µM
[4] = protein concentration 0.03125 µM
[5] = protein concentration 0.3125 µM
[6] = protein concentration 0.0147125 µM
[7] = protein concentration 0.147125 µM
[8] = protein concentration 0.0125 µM
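Further: secreted proteins added to cultured cells, EdU pulse at the end, nuclei found by Hoechst imaging, EdU status from nuclear versus surrounding ring intensity ratio, PBS as neutral control.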

In the case of “MDSYLLMWGLLTFIMVPGCQAELCDDDPPEIPHATFKAMAYKEGTMLNCECKRGFRRIKSGSLYMLCTGNSSHSSWDNQCQCTSSATRNTTKQVTPQPEEQKERKTTEMQSPMQPVDQASLPGHCREPPPWENEATERIYHFVVGQMVYYQCVQGYRALHRGPAESVCKMTHGKTRWTQPQLICTGEMETSQFPGEEKPQASPEGRPESETSCLVTTTDFQIQTEMAATMETSIFTTEYQVAVAGCVFLLISVLLLSGLTWQRRQRKSRRTI”, the “percentage of EdU-negative” value [1, 3] is reported as 24.6 ± 0.99%, the “percentage of EdU-negative” value ([1]; protein concentration 0.225 µM) is reported as 25.4 ± 1.9% and the “percentage of EdU-negative” value [2, 3] is reported as 4.53 ± 0.75%. For the same sequence, the “percentage of EdU-negative” value ([2]; protein concentration 0.225 µM) was 7.02 ± 0.61%.
“MDTIFLWSLLLLFFGSQASRCSAQKNTEFAVDLYQEVSLSHKDNIIFSPLGITLVLEMVQLGAKGKAQQQIRQTLKQQETSAGEEFFVLKSFFSAISEKKQEFTFNLANALYLQEGFTVKEQYLHGNKEFFQSAIKLVDFQDAKACAEMISTWVERKTDGKIKDMFSGEEFGPLTRLVLVNAIYFKGDWKQKFRKEDTQLINFTKKNGSTVKIPMMKALLRTKYGYFSESSLNYQVLELSYKGDEFSLIIILPAEGMDIEEVEKLITAQQILKWLSEMQEEEVEISLPRFKVEQKVDFKDVLYSLNITEIFSGGCDLSGITDSSEVYVSQVTQKVFFEINEDGSEAATSTGIHIPVIMSLAQSQFIANHPFLFIMKHNPTESILFMGRVTNPDTQEIKGRDLDSL” was tested, and the “percentage of EdU-negative” value [1, 4] was 24 ± 0.53%, the “percentage of EdU-negative” value [1, 5] was 24.9 ± 1.8% and the “percentage of EdU-negative” value [2, 4] was 4.81 ± 0.69%. For the same sequence, the “percentage of EdU-negative” value [2, 5] was 6.48 ± 0.78%.
With “MDTPRVLLSAVFLISFLWDLPGFQQASISSSSSSAELGSTKGMRSRKEGKMQRAPRDSDAGREGQEPQPRPQDEPRAQQPRAQEPPGRGPRVVPHEYMLSIYRTYSIAEKLGINASFFQSSKSANTITSFVDRGLDDLSHTPLRRQKYLFDVSMLSDKEELVGAELRLFRQAPSAPWGPPAGPLHVQLFPCLSPLLLDARTLDPQGAPPAGWEVFDVWQGLRHQPWKQLCLELRAAWGELDAGEAEARARGPQQPPPPDLRSLGFGRRVRPPQERALLVVFTRSQRKNLFAEMREQLGSAEAAGPGAGAEGSWPPPSGAPDARPWLPSPGRRRRRTAFASRHGKRHGKKSRLRCSKKPLHVNFKELGWDDWIIAPLEYEAYHCEGVCDFPLRSHLEPTNHAIIQTLMNSMDPGSTPPSCCVPTKLTPISILYIDAGNNVVYKQYEDMVVESCGCR [Q6KF10]” the “percentage of EdU-negative” value [1, 6] was 25.3 ± 1.3%, the “percentage of EdU-negative” value [1, 7] was 28.7 ± 2.5% and the “percentage of EdU-negative” value [2, 6] was 4.28 ± 0.073%. For the same sequence, the “percentage of EdU-negative” value [2, 7] was 5.35 ± 0.57%.
For “MDTRNKAQLLVLLTLLSVLFSQTSAWPLYRAPSALRLGDRIPFEGANEPDQVSLKEDIDMLQNALAENDTPYYDVSRNARHADGVFTSDFSKLLGQLSAKKYLESLMGKRVSSNISEDPVPVKRHSDAVFTDNYTRLRKQMAVKKYLNSILNGKRSSEGESPDFPEELEK”, the “percentage of EdU-negative” value [1, 8] was 27.7 ± 3.4%, the “percentage of EdU-negative” value ([1]; protein concentration 0.125 µM) was 22.42 ± 0.17% and the “percentage of EdU-negative” value [2, 8] was 5.76 ± 0.37%. For the same sequence, the “percentage of EdU-negative” value ([2]; protein concentration 0.125 µM) was 5.43 ± 0.065%.
For “MDWSFFRVVAMLFIFLVVVEVNSEFRIQVRDYNTKNGTIKWHSIRRQKREWIKFAAACREGEDNSKRNPIAKIHSDCAANQQVTYRISGVGIDQPPYGIFVINQKTGEINITSIVDREVTPFFIIYCRALNSMGQDLERPLELRVRVLDINDNPPVFSMATFAGQIEENSNANTLVMILNATDADEPNNLNSKIAFKIIRQEPSDSPMFIINRNTGEIRTMNNFLDREQYGQYALAVRGSDRDGGADGMSAECECNIKILDVNDNIPYMEQSSYTIEIQENTLNSNLLEIRVIDLDEEFSANWMAVIFFISGNEGNWFEIEMNERTNVGILKVVKPLDYEAMQSLQLSIGVRNKAEFHHSIMSQYKLKASAISVTVLNVIEGPVFRPGSKTYVVTGNMGSNDKVGDFVATDLDTGRPSTTVRYVMGNNPADLLAVDSRTGKLTLKNKVTKEQYNMLGGKYQGTILSIDDNLQRTCTGTININIQSFGNDDRTNTEPNTKITTNTGRQESTSSTNYDTSTTSTDSSQVYSSEPGNGAKDLLSDNVHFGPAGIGLLIMGFLVLGLVPFLMICCDCGGAPRSAAGFEPVPECSDGAIHSWAVEGPQPEPRDITTVIPQIPPDNANIIECIDNSGVYTNEYGGREMQDLGGGERMTGFELTEGVKTSGMPEICQEYSGTLRRNSMRECREGGLNMNFMESYFCQKAYAYADEDEGRPSNDCLLIYDIEGVGSPAGSVGCCSFIGEDLDDSFLDTLGPKFKKLADISLGKESYPDLDPSWPPQSTEPVCLPQETEPVVSGHPPISPHFGTTTVISESTYPSGPGVLHPKPILDPLGYGNVTVTESYTTSDTLKPSVHVHDNRPASNVVVTERVVGPISGADLHGMLEMPDLRDGSNVIVTERVIAPSSSLPTSLTIHHPRESSNVVVTERVIQPTSGMIGSLSMHPELANAHNVIVTERVVSGAGVTGISGTTGISGGIGSSGLVGTSMGAGSGALSGAGISGGGIGLSSLGGTASIGHMRSSSDHHFNQTIGSASPSTARSRITKYSTVQYSK”, the “percentage of EdU-negative” value ([1]; protein concentration 0.014 µM) was 25.17 ± 0.14%, the “percentage of EdU-negative” value ([1]; protein concentration 0.14 µM) was 28.1 ± 0.79% and the “percentage of EdU-negative” value ([2]; protein concentration 0.014 µM) was 5.37 ± 1.1%. The “percentage of EdU-negative” value ([2]; protein concentration 0.14 µM) was 5.1 ± 0.58%.
With “MDYPTLLLALLHVYRALCEEVLWHTSVPFAENMSLECVYPSMGILTQVEWFKIGTQQDSIAIFSPTHGMVIRKPYAERVYFLNSTMASNNMTLFFRNASEDDVGYYSCSLYTYPQGTWQKVIQVVQSDSFEAAVPSNSHIVSEPGKNVTLTCQPQMTWPVQAVRWEKIQPRQIDLLTYCNLVHGRNFTSKFPRQIVSNCSHGRWSVIVIPDVTVSDSGLYRCYLQASAGENETFVMRLTVAEGKTDNQYTLFVAGGTVLLLLFVISITTIIVIFLNRRRRRERRDLFTESWDTQKAPNNYRSPISTSQPTNQSMDDTREDIYVNYPTFSRRPKTRV” the “percentage of EdU-negative” value [1, 3] was 25.5 ± 2.7%, the “percentage of EdU-negative” value ([1]; protein concentration 0.225 µM) was 23.8 ± 1.8% and the “percentage of EdU-negative” value [2, 3] was 4.86 ± 0.72%. For the same sequence, the “percentage of EdU-negative” value ([2]; protein concentration 0.225 µM) was 5.13 ± 0.67%.
